Test results: patent US20110142761A1 (AbbVie / Abbott, published 2011)

Key:
human IL-1β [1] = target: T1, human IL-1β (human, UniProt P01584 117-269); experiment: ELISA; antibody captured on anti-human Fc, biotinylated human IL-1β titrated
T1 construct: it has 153 residues and begins APVRS; also called hIL-1β; recombinant purified human IL-1β
Description: To determine if anti-IL-1β mAbs bind to human IL-1β, ELISA plates (Nunc, MaxiSorp, Rochester, N.Y.) were incubated overnight at 4° C. with anti-human Fc antibody diluted in Pierce Coat buffer at 2 μg/ml (Jackson Immunoresearch, West Grove, Pa.). Plates were washed five times in washing buffer (PBS containing 0.05% Tween 20), and blocked for 1 hour at 25° C. with 200 μl per well superblock blocking buffer (Thermo scientific, #37515). Blocking buffer was removed by tapping plates, and 2 μg/ml of each antibody in PBS containing 10% superblock, 0.5% tween-20 was added to the wells at 100 μl per well and incubated at 25° C. for 1 hour. The wells were washed five times in 1×PBST, and 1 μg/ml biotinylated antigen was titrated at 1:6 serial dilutions (for a range of μg to pg in PBS containing 10% superblock, 0.05% tween 20). Each dilution of antigen was then added to the plates and incubated for 1 hour at 25° C. The wells were washed five times in 1×PBST and incubated for 1 hour at 25° C. with polyHRP streptavidin (KPL #474-3000, Gaithersburg, Md.). The wells were washed five times in 1×PBST, and 100 μl of ULTRA-TMB ELISA (Pierce, Rockford, Ill.) were added per well. Following color development the reaction was stopped with 1N HCL and absorbance at 450 nm was measured. The results are shown in Table 9, and the numerical value indicating binding of human anti-IL-1β antibodies to human IL-1β.

human IL-1β [2] = target: T1, human IL-1β; experiment: SPR (Biacore 3000), antibody captured, human IL-1β as analyte, 25 C
Description: The BIACORE® assay (Biacore, Inc., Piscataway, N.J.) determines the affinity of antibodies with kinetic measurements of on-, off-rate constants. Binding of antibodies to recombinant purified human IL-1β was determined by surface plasmon resonance-based measurements with a Biacore™ 3000 instrument (Biacore™ AB, Uppsala, Sweden) using running HBS-EP (10 mM HEPES [pH 7.4], 150 mM NaCl, 3 mM EDTA, and 0.005% surfactant P20) at 25° C. All chemicals were obtained from Biacore® AB (Uppsala, Sweden) unless otherwise stated. Approximately 5,000 RU of goat anti-mouse IgG, (Fcγ), fragment specific polyclonal antibody (Pierce Biotechnology Inc, Rockford, Ill.) diluted in 10 mM sodium acetate (pH 4.5) was directly immobilized across a CM5 research grade biosensor chip using a standard amine coupling kit according to manufacturer's instructions and procedures at 25 μg/ml. Unreacted moieties on the biosensor surface were blocked with ethanolamine. Modified carboxymethyl dextran surface in flowcell 2 and 4 was used as a reaction surface. Unmodified carboxymethyl dextran without goat anti-mouse IgG in flow cell 1 and 3 was used as the reference surface. For kinetic analysis, rate equations derived from the 1:1 Langmuir binding model were fitted simultaneously to association and dissociation phases of all eight injections (using global fit analysis) with the use of Biaevaluation 4.0.1 software. Purified antibodies were diluted in HEPES-buffered saline for capture across goat anti-mouse IgG specific reaction surfaces. Mouse antibodies to be captured as a ligand (25 μg/ml) were injected over reaction matrices at a flow rate of 5 μl/minute. The association and dissociation rate constants, kₒₙ (unit M⁻¹s⁻¹) and koff (unit s⁻¹) were determined under a continuous flow rate of 25 μl/minute. Rate constants were derived by making kinetic binding measurements at ten different antigen concentrations ranging from 10-200 nM. The equilibrium dissociation constant (unit M) of the reaction between antibodies and the target antigen was then calculated from the kinetic rate constants by the following formula: KD=koff/kₒₙ. Binding is recorded as a function of time and kinetic rate constants are calculated. In this assay, on-rates as fast as 10⁶M⁻¹s⁻¹ and off-rates as slow as 10⁻⁶s⁻¹ can be measured.

human IL-1β [3] = target: T1, human IL-1β; experiment: cell-based or functional assay

Row | Binder | EC50 (human IL-1β [1]) [nM] | Kd (human IL-1β [2]) [nM] | koff (human IL-1β [2]) [s⁻¹] | kon (human IL-1β [2]) [M⁻¹ s⁻¹] | Potency on Human IL-1β IC50 (pM); inhibition of IL-1β-induced IL-8 production by MRC-5 cells (human IL-1β [3]) [pM]
1 | humanized anti-human IL-1β antibody 1B12.2 (antibody, V domains shown, Cloned into IgG expression vectors and made as full-length humanized antibody; also called h1B12VH.1a/h1B12VL.1b; combination 2) VH: EVQLQESGPGLVKPSETLSLTCTVSGFSLSDYGVSWIRQPPGKGLEWLGLIWGGGDTYYNSPLKSRLTISKDNSKSQVSLKLSSVTAADTAVYYCAKQRTLWGYDLYGMDYWGQGTLVTVSS VL: ETTVTQSPSSLSASVGDRVTITCITSTDIDVDMNWYQQKPGKPPKLLISQGNTLRPGVPSRFSSSGSGTDFTFTISSLQPEDFATYYCLQSDNLPLTFGQGTKLEIK | 0.0376 | 0.147 | 0.0009 | 6.13e+06 | 146
2 | humanized anti-human IL-1β antibody 1B12.6 (antibody, V domains shown) VH: EVQLVESGGGLVQPGGSLRLSCAVSGFTLSDYGVSWIRQAPGKGLEWLGLIWGGGDTYYNSPLKSRLTISKDNSKSTVYLQMNSLRAEDTAVYYCAKQRTLWGYDLYGMDYWGQGTLVTVSS VL: ETTVTQSPSSLSASVGDRVTITCITSTDIDVDMNWYQQKPGKPPKLLISQGNTLRPGVPSRFSSSGSGTDFTFTISSLQPEDFATYYCLQSDNLPLTFGQGTKLEIK | – | – | – | – | 378
3 | humanized anti-human IL-1β antibody 1B12.3 (antibody, V domains shown) VH: EVQLQESGPGLVKPSETLSLTCTVSGFSLSDYGVSWIRQPPGKGLEWLGLIWGGGDTYYNSPLKSRLTISKDNSKSQVSLKLSSVTAADTAVYYCAKQRTLWGYDLYGMDYWGQGTLVTVSS VL: DTVVTQSPAFLSVTPGEKVTITCITSTDIDVDMNWYQQKPDQPPKLLISQGNTLRPGVPSRFSSSGSGTDFTFTISSLEAEDAATYYCLQSDNLPLTFGQGTKLEIK | – | – | – | – | 303
4 | humanized anti-human IL-1β antibody 1B12.1 (antibody, V domains shown) VH: EVQLQESGPGLVKPSETLSLTCTVSGFSLSDYGVSWIRQPPGKGLEWLGLIWGGGDTYYNSPLKSRLTISKDNSKSQVSLKLSSVTAADTAVYYCAKQRTLWGYDLYGMDYWGQGTLVTVSS VL: DTQVTQSPSSLSASVGDRVTITCITSTDIDVDMNWYQQKPGKPPKLLISQGNTLRPGVPSRFSSSGSGTDFTFTISSLQPEDFATYYCLQSDNLPLTFGQGTKLEIK | – | – | – | – | 151

Further lines, results first:

Row | EC50 (human IL-1β [1]) [nM] | Kd (human IL-1β [2]) [nM] | koff (human IL-1β [2]) [s⁻¹] | kon (human IL-1β [2]) [M⁻¹ s⁻¹] | Potency on Human IL-1β IC50 (pM); inhibition of IL-1β-induced IL-8 production by MRC-5 cells (human IL-1β [3]) [pM] | Binder
5 | 0.0582 | 0.284 | 0.00164 | 5.76e+06 | 581 | humanized anti-human IL-1β antibody 1B12.7 (antibody, V domains shown, Cloned into IgG expression vectors and made as full-length humanized antibody; also called h1B12VH.2a/h1B12VL.2a; combination 7) VH: EVQLVESGGGLVQPGGSLRLSCAVSGFTLSDYGVSWIRQAPGKGLEWLGLIWGGGDTYYNSPLKSRLTISKDNSKSTVYLQMNSLRAEDTAVYYCAKQRTLWGYDLYGMDYWGQGTLVTVSS VL: DTVVTQSPAFLSVTPGEKVTITCITSTDIDVDMNWYQQKPDQPPKLLISQGNTLRPGVPSRFSSSGSGTDFTFTISSLEAEDAATYYCLQSDNLPLTFGQGTKLEIK
6 | 0.0378 | 0.161 | 0.00097 | 6.01e+06 | 597 | humanized anti-human IL-1β antibody 1B12.4 (antibody, V domains shown, Cloned into IgG expression vectors and made as full-length humanized antibody; also called h1B12VH.1a/h1B12VL.2b; combination 4) VH: EVQLQESGPGLVKPSETLSLTCTVSGFSLSDYGVSWIRQPPGKGLEWLGLIWGGGDTYYNSPLKSRLTISKDNSKSQVSLKLSSVTAADTAVYYCAKQRTLWGYDLYGMDYWGQGTLVTVSS VL: ETTVTQSPAFLSVTPGEKVTITCITSTDIDVDMNWYQQKPDQPPKLLISQGNTLRPGVPSRFSSSGSGTDFTFTISSLEAEDAATYYCLQSDNLPLTFGQGTKLEIK
7 | 0.0479 | 0.23 | 0.00137 | 5.94e+06 | 484 | humanized anti-human IL-1β antibody 1B12.8 (antibody, V domains shown, Cloned into IgG expression vectors and made as full-length humanized antibody; also called h1B12VH.2a/h1B12VL.2b; combination 8) VH: EVQLVESGGGLVQPGGSLRLSCAVSGFTLSDYGVSWIRQAPGKGLEWLGLIWGGGDTYYNSPLKSRLTISKDNSKSTVYLQMNSLRAEDTAVYYCAKQRTLWGYDLYGMDYWGQGTLVTVSS VL: ETTVTQSPAFLSVTPGEKVTITCITSTDIDVDMNWYQQKPDQPPKLLISQGNTLRPGVPSRFSSSGSGTDFTFTISSLEAEDAATYYCLQSDNLPLTFGQGTKLEIK
8 | 0.0488 | 0.231 | 0.00144 | 6.24e+06 | 319 | humanized anti-human IL-1β antibody 1B12.5 (antibody, V domains shown, Cloned into IgG expression vectors and made as full-length humanized antibody; also called h1B12VH.2a/h1B12VL.1a; combination 5) VH: EVQLVESGGGLVQPGGSLRLSCAVSGFTLSDYGVSWIRQAPGKGLEWLGLIWGGGDTYYNSPLKSRLTISKDNSKSTVYLQMNSLRAEDTAVYYCAKQRTLWGYDLYGMDYWGQGTLVTVSS VL: DTQVTQSPSSLSASVGDRVTITCITSTDIDVDMNWYQQKPGKPPKLLISQGNTLRPGVPSRFSSSGSGTDFTFTISSLQPEDFATYYCLQSDNLPLTFGQGTKLEIK
